Results reported in patent US12708119B2, “Methods of reducing or preventing clostridioides difficile colonization” (priority 2020, dated 2026).
Entries after “also recorded” stand apart in the source; their conditions may differ.

How the values were obtained:
[1] = system: Clostridioides difficile SH11 spores; test: Sporicidal enhancement of CotE_H2 and CDec_D1 aptamers in combination with Clinell sporicidal solution: growth / MSC (Examples 4 and 6); assay type: cell-based; settings: for effect of the addition of aptamer on the sporicidal capabilities of Clinell sporicidal solution / growth of spores in the presence of aptamer alone: SH11 spores
Description: (§1) Prior to testing, CotE_H2 aptamers were diluted in nuclease free water to a concentration of 80 μM. The aptamers were folded by heating to 95° C. in a digital dry bath for 5 minutes and then immediately placed on ice and cooled to 2° C. The aptamers were stored at 2-4° C. while in use. A Clostridioides difficile SH11 bacterial spore inoculum was prepared to 1×10^7±5×10^6 CFUmL^−1 according to internal procedures. The inoculum was confirmed by serial dilution and plating out the resultant suspensions onto brain heart infusion agar supplemented with horse blood and yeast (BHI-YHT). CotE_H2 aptamers were further diluted in “TbKst” buffer to obtain 2× in-test concentrations (40, 20, 10 and 5 μM). Ten microlitres of C. difficile spores were added to 10 μL of each 2× in-test concentration of CotE_H2 aptamer. The spore suspension was pipette mixed and incubated with CotE_H2 aptamer at room temperature for one hour. The spores were then washed three times by centrifuging at 13,400 RPM for 10 minutes. In each wash the supernatant was removed, and the pellet was resuspended in 100 μL of “TbKst” buffer. Following the third wash, the spores were resuspended in 100 μL of “TbKst” buffer and vortexed to obtain a homogenous solution.
(§2) A total of six 2× in-test concentrations (1:2 dilutions) of the sporicidal test agent were prepared from the stock (100%, 50%, 25%, 12.5%, 6.25%, 3.125%). Negative and positive control solutions were also prepared. Ten microliter aliquots of each sporicidal test agent concentration or control solution were added to the wells of a 96-well plate. A 10 μL aliquot of the aptamer-spore suspension was added to each test agent or control solution and pipette mixed. The final in-test concentrations of the sporicidal test agent were 50%, 25%, 12.5%, 6.25%, 3.125%, 1.5625%. The plates were then incubated for 15 minutes at 37° C.±2° C. in an anaerobic environment. Following incubation, 50 μL of GH neutraliser was added to each well and pipette mixed. A 10 μL aliquot of neutralised suspension was taken from each well and transferred to an agar plate and incubated for 48 hours at 37° C.±2° C. in an anaerobic environment. Growth was recorded as “+” and no growth as “−”. The minimum sporicidal concentration (MSC) for each spore and aptamer concentration was identified as the lowest concentration with no growth for all replicates. […] The test was repeated without the presence of the aptamers and without the presence of the Clinell® sporicidal solution. Testing was also repeated using C. difficile ATCCR 43598™ and C. difficile R20291 spores. Testing was performed in triplicate. The method was repeated with CDec_D1 aptamers for all three strains of C. difficile spores.

[2] = system: Clostridioides difficile ATCC® 43598™ spores; test: as above; assay type: cell-based
Description: as §1, §2

[3] = system: Clostridioides difficile R20291 spores; test: as above; assay type: cell-based; settings: for effect of the addition of aptamer on the sporicidal capabilities of Clinell sporicidal solution / growth of spores in the presence of aptamer alone: R20291 spores
Description: as §1, §2

[4] = system: C. difficile ATCC® 43598™ spores; test: Sporicidal enhancement of CDiff_F1 aptamer in combination with Clinell sporicidal solution: growth / MSC (Example 3); assay type: cell-based, Clostridioides difficile; design: key to Growth observed after recovering viable C. difficile ATCC 43598 spores: Growth was recorded as “+”; no growth as “−”; settings: for Growth observed after recovering viable C. difficile ATCC 43598 spores: Aptamers only, treatment 15 minutes
Description: (§3) Prior to testing, the CDiff_F1 aptamers were diluted in nuclease free water to a concentration of 80 μM. The aptamers were folded by heating to 95° C. in a digital dry bath for 5 minutes and then immediately placed on ice and cooled to 2° C. The aptamers were stored at 2-4° C. while in use. A C. difficile SH11 bacterial spore inoculum was prepared to 1×108±5×10^7 CFUmL−1 according to internal procedures. The inoculum was confirmed by serial dilution and plating out the resultant suspensions onto brain heart infusion agar supplemented with horse blood and yeast (BHI-YHT). The CDiff_F1 aptamers were further diluted in “BB+Mg2+” buffer to obtain two times in-test concentrations ([…]). Ten microlitres of C. difficile spores were added to 10 μL of each two times in-test concentration of CDiff_F1 aptamer. The spore suspension was pipette mixed and incubated with CDiff_F1 aptamer at room temperature for one hour. The spores were then washed three times by centrifuging at 13,400 RPM for 10 minutes. In each wash the supernatant was removed, and the pellet was resuspended in 100 μL of “BB+Mg2+” buffer. Following the third wash, the spores were resuspended in 100 μL of “BB+Mg2+” buffer and vortexed to obtain a homogenous solution.
(§4) A total of six, two times in-test concentrations of each sporicidal test agent were prepared from the stock (100%, 50%, 25%, 12.5%, 6.25%, 3.125%). Negative and positive control solutions were also prepared. Ten microliter aliquots of each sporicidal test agent concentration or control solution were added to the wells of a 96-well plate. A 10 μL aliquot of the aptamer-spore suspension was added to each test agent or control solution and pipette mixed. The final in-test concentrations of each sporicidal test agent were 50%, 25%, 12.5%, 6.25%, 3.125%, 1.5625%. The plates were then incubated for 15 minutes at 37° C.±2° C. in an anaerobic environment. Following incubation, 50 μL of GH neutraliser was added to each well and pipette mixed. A 10 μL aliquot of neutralised suspension was taken from each well and transferred to an agar plate and incubated for 48 hours at 37° C.±2° C. in an anaerobic environment. Growth was recorded as “+” and no growth as “−”. The minimum sporicidal concentration (MSC) for each concentration was identified as the lowest concentration with no growth for all replicates. […] The test was repeated without the presence of the aptamers and without the presence of the Clinell® sporicidal solution. Testing was also repeated using C. difficile ATCC® 43598™ and C. difficile R20291 spores. Testing was performed in triplicate.

[5] = system: C. difficile SH11 spores; test: as above; assay type: cell-based, Clostridioides difficile; design: key to Growth observed after recovering viable spores: Growth was recorded as “+”; no growth as “−”; settings: for Growth observed after recovering viable spores: aptamers only, treatment 15 minutes
Description: as §3, §4

[6] = system: C. difficile R20291 spores; test: as above; assay type: cell-based, Clostridioides difficile; design: key to Growth observed after recovering viable C. difficile R20291 spores: Growth was recorded as “+”; no growth as “−”; settings: for Growth observed after recovering viable C. difficile R20291 spores: Aptamers only, treatment 15 minutes
Description: as §3, §4

[7] = C. difficile SH11 spores, aptamer without Clinell sporicidal solution
[8] = any concentration of CotE_H2 aptamers without Clinell sporicidal solution
[9] = C. difficile ATCC ® 43598 ™ spores, aptamer without Clinell sporicidal solution
[10] = C. difficile R20291 spores, aptamer without Clinell sporicidal solution
[11] = any concentration of CDec_D1 aptamers without Clinell sporicidal solution

B1: CotE_H2: aptamer against CotE, SEQ ID NO: 11; Table 4 lists fragments SEQ ID NO: 26-30 under the same ID (nucleic acid)
DNA: CCAGTGTAGACTACTCAATGCGGCTGTGTGACTTGACCTTTGGAATGGGTGGGAGGGATGGGTACTATCCACAGGTCAACC
modifications: listed as DNA, chemistry not given here
[1]; [7]
  MSC of CotE_H2: >20 µM
[1]
  effect of the addition of aptamer on the sporicidal capabilities of Clinell sporicidal solution: enhanced
[1]; [8]
  growth of spores in the presence of aptamer alone: unaffected
[2]; ATCC 43598 spores, any concentration of CotE_H2 aptamers without Clinell sporicidal solution
  growth of spores in the presence of aptamer alone: unaffected
[2]; [9]
  MSC of CotE_H2: >20 µM
[3]; [10]
  MSC of CotE_H2: >20 µM
[3]
  effect of the addition of aptamer on the sporicidal capabilities of Clinell sporicidal solution: enhanced
[3]; [8]
  growth of spores in the presence of aptamer alone: unaffected

B2: CDiff_F1: aptamer against C.diff spores, SEQ ID NO: 1; Table 4 lists fragments SEQ ID NO: 24, 44, 45 under the same ID (nucleic acid)
DNA: CCAGTGTAGACTACTCAATGCTCTTACGATCCTCACCTGCTAGCACACCCATATCCCATGCGTACTATCCACAGGTCAACC
modifications: listed as DNA, chemistry not given here
[4]; ATCC 43598 spores
  effect of the addition of aptamer on the sporicidal capabilities of Clinell sporicidal solution: enhanced
[4]; ATCC 43598 spores, any concentration of CDiff_F1 aptamers without Clinell sporicidal solution
  growth of spores in the presence of aptamer alone: unaffected; also recorded: did not affect
[4]; ATCC 43598 spores, aptamer without Clinell sporicidal solution
  MSC of CDiff_F1: >20 µM
[4]; CDiff_F1 aptamer 2.5 μM
  Growth observed after recovering viable C. difficile ATCC 43598 spores: +
[4]; CDiff_F1 aptamer 5 μM
  Growth observed after recovering viable C. difficile ATCC 43598 spores: +
[4]; CDiff_F1 aptamer 10 μM
  Growth observed after recovering viable C. difficile ATCC 43598 spores: +
[4]; CDiff_F1 aptamer 20 μM
  Growth observed after recovering viable C. difficile ATCC 43598 spores: +
[4]; spores of the ATCC 43598 strain, after 15 minutes
  fold reduction in the concentration of peracetic acid required for sporicidal activity: up to 2 fold
[5]; SH11 spores
  effect of the addition of aptamer on the sporicidal capabilities of Clinell sporicidal solution: enhanced
[5]; SH11 spores, any concentration of CDiff_F1 aptamers without Clinell sporicidal solution
  growth of spores in the presence of aptamer alone: unaffected; also recorded: did not affect
[5]; SH11 spores, aptamer without Clinell sporicidal solution
  MSC of CDiff_F1: >20 µM
[5]; CDiff_F1 2.5 μM, SH11 spores
  Growth observed after recovering viable spores: +
[5]; CDiff_F1 5 μM, SH11 spores
  Growth observed after recovering viable spores: +
[5]; CDiff_F1 10 μM, SH11 spores
  Growth observed after recovering viable spores: +
[5]; CDiff_F1 20 μM, SH11 spores
  Growth observed after recovering viable spores: +
[5]; spores of the SH11 strain, 20 μM of the aptamer
  fold reduction in the concentration of peracetic acid required for sporicidal activity: up to 4 fold
[6]; CDiff_F1 aptamer 2.5 μM
  Growth observed after recovering viable C. difficile R20291 spores: +
[6]; CDiff_F1 aptamer 5 μM
  Growth observed after recovering viable C. difficile R20291 spores: +
[6]; CDiff_F1 aptamer 10 μM
  Growth observed after recovering viable C. difficile R20291 spores: +
[6]; CDiff_F1 aptamer 20 μM
  Growth observed after recovering viable C. difficile R20291 spores: +
[6]; R20291 spores
  effect of the addition of aptamer on the sporicidal capabilities of Clinell sporicidal solution: enhanced
[6]; R20291 spores, aptamer without Clinell sporicidal solution
  MSC of CDiff_F1: >20 µM
[6]; R20291 spores, only CDiff_F1 aptamers
  growth of spores in the presence of aptamer alone: did not affect

B3: CDec_D1: aptamer against CdeC, SEQ ID NO: 6; Table 4 lists fragments SEQ ID NO: 38, 39 under CdeC_D1 (nucleic acid)
DNA: CCAGTGTAGACTACTCAATGCCGTGGACTGGTCGGGTTTGGATTCGGCAGATGAATCAGTAGTACTATCCACAGGTCAACC
modifications: DNA, backbone and methylation of C not given here
[1]; [7]
  MSC of CDec_D1: >20 µM
[1]
  effect of the addition of aptamer on the sporicidal capabilities of Clinell sporicidal solution: enhanced
[1]; [11]
  growth of spores in the presence of aptamer alone: unaffected
[2]; ATCC 43598 spores
  effect of the addition of aptamer on the sporicidal capabilities of Clinell sporicidal solution: enhanced
[2]; ATCC 43598 spores, any concentration of CDec_D1 aptamers without Clinell sporicidal solution
  growth of spores in the presence of aptamer alone: unaffected
[2]; [9]
  MSC of CDec_D1: >20 µM
[3]; [10]
  MSC of CDec_D1: >20 µM
[3]
  effect of the addition of aptamer on the sporicidal capabilities of Clinell sporicidal solution: enhanced
[3]; [11]
  growth of spores in the presence of aptamer alone: unaffected
